Experimental data: patent publication US20180118846A1 (published 2018)

Assays:
[1] = biological target: T1, human Trop-2 (human, UniProt P09758 27-323); test: cell-based or functional assay
T1 sequence (looked up): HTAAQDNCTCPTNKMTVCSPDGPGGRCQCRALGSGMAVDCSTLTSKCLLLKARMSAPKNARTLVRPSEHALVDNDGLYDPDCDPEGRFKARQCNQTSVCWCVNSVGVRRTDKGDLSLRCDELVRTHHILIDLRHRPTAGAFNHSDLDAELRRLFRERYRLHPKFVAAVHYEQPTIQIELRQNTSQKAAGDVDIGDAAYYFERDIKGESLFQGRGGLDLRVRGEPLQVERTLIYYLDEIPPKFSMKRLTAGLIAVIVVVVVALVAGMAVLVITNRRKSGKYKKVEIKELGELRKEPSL

[2] = biological target: T1, human Trop-2; test: cell-based or functional assay; remark: listed apart in the source
[3] = biological target: T2, mouse Trop-2 (mouse, UniProt Q8BGV3 25-270, limits assumed); test: not described (data not shown)
T2 sequence (looked up): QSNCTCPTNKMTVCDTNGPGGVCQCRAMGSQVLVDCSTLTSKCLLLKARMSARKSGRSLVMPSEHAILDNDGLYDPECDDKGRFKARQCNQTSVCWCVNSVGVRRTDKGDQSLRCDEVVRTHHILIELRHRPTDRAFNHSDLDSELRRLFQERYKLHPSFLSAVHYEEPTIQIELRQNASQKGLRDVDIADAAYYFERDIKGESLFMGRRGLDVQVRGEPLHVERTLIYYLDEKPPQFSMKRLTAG

[4] = biological target: mouse CD3 (mouse, UniProt P22646 22-108); test: not described (data not shown)
Chain of mouse CD3 (P22646 22-108): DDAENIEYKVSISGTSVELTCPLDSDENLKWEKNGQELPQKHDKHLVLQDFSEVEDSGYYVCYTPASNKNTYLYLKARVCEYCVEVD

T-cell lysis of NCI-N87, very active donor, IC50 [1]: 0.37 pM
T-cell lysis of NCI-N87, very active donor, with 0.1 nM 20*-2b, IC50 [1]: 0.05 pM
T-cell lysis of NCI-N87, very active donor, with 0.1 nM peginterferonalfa-2a, IC50 [1]: 0.14 pM
T-cell lysis of NCI-N87, very weak donor T cells, EC50 [1]: 39 pM
T-cell lysis of NCI-N87, very weak donor T cells, with peginterferonalfa-2a, EC50 [1]: 1.4 pM
T-cell mediated lysis of Capan-1, IC50 [1]: 29 pM
T-cell mediated lysis of NCI-N87, IC50 [1]: 0.85 pM
binding result [3]: no binding
binding result [4]: no binding
B1: (E1)-3s, anti-Trop-2 x anti-CD3 trivalent bispecific DNL complex (two CH1-DDD2-Fab-hRS7 + one scFv-AD2-Okt3) (bispecific antibody)
heavy (part 1 of 2): QVQLQQSGSELKKPGASVKVSCKASGYTFTNYGMNWVKQAPGQGLKWMGWINTYTGEPTYTDDFKGRFAFSLDTSVSTAYLQISSLKADDTAVYFCARGGFGSSYWYFDVWGQGSLVTVSS
heavy (part 2 of 2): not shown
light: DIQLTQSPSSLSASVGDRVSITCKASQDVSIAVAWYQQKPGKAPKLLIYSASYRYTGVPDRFSGSGSGTDFTLTISSLQPEDFAVYYCQQHYITPLTFGAGTKVEIK
scFv: not shown
notes: also called (E1)-35; TROP2-targeting bsAb; not shown: human CH1, first 4 hinge residues and Gly/Ser linker; human kappa constant domain
T-cell killing of BxPC3, IC50 [1]: 0.4 pM
ex vivo T cell redirected killing of BxPC3, donor 1, IC50 [2]: 1.06 pM
ex vivo T cell redirected killing of BxPC3, donor 2, IC50 [2]: 0.56 pM
ex vivo T cell redirected killing of BxPC3, donor 3, IC50 [2]: 0.32 pM
ex vivo T cell redirected killing of Capan-1, donor 1, IC50 [2]: 35.6 pM
ex vivo T cell redirected killing of Capan-1, donor 2, IC50 [2]: 248 pM
ex vivo T cell redirected killing of Capan-1, donor 4, IC50 [2]: 8.51 pM
ex vivo T cell redirected killing of NCI-N87, donor 1, IC50 [2]: 6.76 pM
ex vivo T cell redirected killing of NCI-N87, donor 2, IC50 [2]: 34 pM
